The test deals with Cry1Ac WT toxin (Bacillus thuringiensis). Briefly: SPR. Particulars: both partners purified.

B1: HaALP, membrane bound alkaline phosphatase of Helicoverpa armigera (receptor)
chain: HWLHPAAPAAASRAETSANYWAQDAQAAINARLERVESVKKAHNVIMFLGDGMSVPTLAAARTLLGQRQGKTGEETKLHFETFPTIGLVKTYCVDAQIADSACTATAYLCGVKNNYGAIGVDGTVRRGDCQAASNTATHVESIAEWALADGRDVGIVTTTRITHASPAGTFAKTANRTWENDGEVSQMGLDAKDCPDIAHQLVHHHPGNKFKVIFGGGRRAFLPNTVQDDEGSYGRRIDNRDLIQEWKNDKDSRNVSHQYLWQREQLMNLNDDLPEYMLGLFESSHMEYHLKSDPQTEPTLAELTEVAIRSLRRNEKGFFLFVEGGRIDHAHHDNLVELALDETLEMDKAVATATKMLSEDDSLIVVTADHAHVMTINGYSGRGNDILGPSRDVGRDRMPYMTLSYTNGPGFRPHVNDIRQNVTAEPNYRTLDWESHVDVPLVDETHGGDDVAVFARGPHHSMFTGLYEQSQLPHLMAYAACIGPGRHACASAAHLPSAHFFVALPALFISILLR
modifications: glycan with α-GalNAc at the non-reducing terminal (site not stated)
Take B1: the Kd amounted to 7.68 nM, the koff was determined as 0.00129 s⁻¹ and the kon came to 168000 M⁻¹ s⁻¹.

The values are drawn from PMC3813429, “New Insight to Structure-Function Relationship of GalNAc Mediated Primary Interaction between Insecticidal Cry1Ac Toxin and HaALP Receptor of Helicoverpa armigera” (PLoS ONE, 2013).
